This is an account of results in patent publication US20110256142A1 (Genmab, published 2011).

Experiment [1] deals with T1, purified EGFR (Sigma-Aldrich, cat no. E3641) (UniProt P00533 25-1210, limits assumed).
T1 construct: Bought preparation coated on ELISA plates
The experiment is described as follows: ELISA, plate coated with purified EGFR, anti-human IgG Fc-HRP detection. (In an ELISA, binding on a coated surface is turned into a signal by an enzyme label.)

Experiment [2] addresses T2, EGFR-vIII deletion mutant expressed on transfected Ba/F3 and A431 cells (UniProt P00533 25-1210).
T2 construct: whole, on cells; Deletion variant, not expressible as substitutions; also called de2-7 EGFR
Kind of experiment: flow cytometry on Ba/F3 cells transfected with EGFR-vIII, FITC anti-human IgG F(ab')2 detection. For orientation: A flow cytometer gives signals particle by particle.

B1: Fully human IgG1,κ antibody 018 (P- or LC1006-018) (antibody, V domains shown)
VH: EVQLVESGGGLVQPGGSLRLSCAASGFTFSSYWMNWVRQAPGKGLEWVANIKKDGSEKYYVDSVKGRFTISRDNAKNSLYLQMNSLRAEDTAVYYCARDLGWGWGWYFDLWGRGTLVTVSS
VL: not shown
notes: Human IgG1,κ; P1006-018 uncloned, LC1006-018 cloned hybridoma; also called P1006-018
Usually EC50 stands for the concentration at which the effect is half-maximal. Low readings indicate higher potency in that assay, high ones lower potency in that assay. In turn, B1 registered an EC50 in experiment [1] of 0.081 µg/mL.

B2: Fully human IgG1,κ antibody 003 (P- or LC1006-003) (antibody, V domains shown)
VH: EVQLVESGGGLVQPGGSLRLSCAASGFTFSSYWMTWVRQAPGKGLEWVANIQQDGSEKNYLDSVKGRFTISRDNAKNSLSLQMNSLRAEDTAVYYCARTYSGFEDFWGQGTLVTVSS
VL: EIVLTQSPATLSLSPGERATLSCRASQSVSSYLAWYQQKPGQAPRLLIFDASNRATGIPARFSGSGSGTDFTLTISSLEPEDFAVYYCQQRSNWPPWTFGQGTKVEIK
notes: Human IgG1,κ; P1006-003 is the hybridoma before cloning, LC1006-003 the clone by limiting dilution; also called P1006-003
Turning to B2, the concentration for a half-maximal effect (EC50) in experiment [1] came to 0.117 µg/mL. Besides, in experiment [2], the binding result is “no binding (tested: saturating concentrations)”.

B3: Fully human IgG1,κ antibody 008 (P- or LC1006-008) (antibody, V domains shown)
VH: EVQLVESGGGLVQPGGSLRLSCAASGFTFSSYWMSWVRQAPGKGLEWVANIKQDGSEENYVDSVKGRFTVSRDNAKNSLYLQMNSLRAEDTAVYYCARTYSGFEDYWGQGTLVTVSS
VL: EIVLTQSPATLSLSPGERATLSCRASQSVSSYLAWYQQKPGQAPRLLIFDASNRATGIPARFSGSGSGTDFTLTISSLEPEDFAVYYCQQRSNWPPWTFGQGTKVEIK
notes: Human IgG1,κ; P1006-008 uncloned, LC1006-008 cloned hybridoma; also called P1006-008
The molecule B3 had an EC50 in experiment [1] of 2.46 µg/mL. Besides, the binding result in experiment [2] was “no binding (tested: saturating concentrations)”.
